Data: US20230322857A1, “RECOMBINANTLY ENGINEERED POLYPEPTIDES CAPABLE OF RECYCLING NONCANONICAL COFACTORS” (The Regents of the University of California, priority 2022, published 2023)
Entries after “also recorded” stand apart in the source; their conditions may differ.

Tests used:
[1] = Steady state kinetics of glutathione reductase (Gor) variants with NADPH; type: biochemical
Description: (§1) Expression and Purification of Gor Wild-type and Variants. E. coli Gor (EC 1.6.4.2) is a homo-dimeric flavoenzyme containing 450 amino acid residues with 1 FAD per subunit. To prevent interference from endogenous protein, Gor wild-type and variants were expressed using E. coli Δgor::kan strain containing pQElac based plasmids encoding for the Gor wild-type or variants. 1% (v/v) cells from an overnight culture were cultured in 2×YT media with 200 μg/mL ampicillin and 50 μg/mL kanamycin in shake flasks at 37° C. in a rotary shaker to an OD600 of 0.4-0.6. The cultures were then induced with 0.5 mM IPTG and incubated at 30° C. with shaking for 24 h. The cells were harvested with centrifugation and lysed by bead beating with Zymo His Binding Buffer (Zymo Research, CA, USA). Protein purification was performed with Zymo His-Spin Protein miniprep purification kit according to the manufacturer's instructions. The concentrations of purified protein were quantified by Coomassie dye—based assays (Bradford) using BSA (Bovine Serum Albumin) as standards.
Specific Activity and Steady State Kinetic Analyses for Gor Wild-type and Variants. The specific activity and kinetic parameters of Gor with the different cofactors, shown in FIG. 1, were measured using the following methods. For measuring the specific activity with NMNH, the 100 μL reaction mixture contained 96 mM potassium phosphate buffer pH 7.5, 2.5 mM GSSG and 0.8 mM NMNH. NMNH was generated using methods described in Black et al. (Nat. Chem. Biol. 16:87-94 (2020). Briefly, 4 mM NMN^+ was incubated in a solution containing 50 mM Tris-Cl at pH 8.5, 0.2 mM EDTA, 50 mM Na2HPO4, 5 mM D-glyceraldehyde-3-phosphate, and 28 μM of purified E. coli glyceraldehyde-3-phosphate dehydrogenase. The reaction was incubated at 30° C. for 8 h. The protein was removed by an Amicon Ultra 3 K filter, and the flow-through was dried under vacuum. […] The assay was started by addition of 10 μL of purified protein at appropriate concentration at 25° C. The kinetic parameters were measured by monitoring the NAD(P)H consumption at 340 nm in 96-well plate. Data was fit to the Michaelis-Menten equation to generate estimates of apparent catalytic efficiency (kcat/Km). The results are the average of three independent experiments.

[2] = Specific activity of Gor variants with NMNH; type: biochemical
Description: as §1
Specific Activity and Steady State Kinetic Analyses for Gor Wild-type and Variants. The specific activity and kinetic parameters of Gor with the different cofactors, shown in FIG. 1, were measured using the following methods. For measuring the specific activity with NMNH, the 100 μL reaction mixture contained 96 mM potassium phosphate buffer pH 7.5, 2.5 mM GSSG and 0.8 mM NMNH. […] The kinetic parameters were measured by monitoring the NAD(P)H consumption at 340 nm in 96-well plate. […]

[3] = Steady state kinetics of glutathione reductase (Gor) variants with NADH; type: biochemical; conditions: for Km: enzyme could not be saturated, 96 mM Tris-Cl pH 7.5, 2.5 mM GSSG
Description: as §1
(§2) Specific Activity and Steady State Kinetic Analyses for Gor Wild-type and Variants. The specific activity and kinetic parameters of Gor with the different cofactors, shown in FIG. 1, were measured using the following methods. For measuring the specific activity with NMNH, the 100 μL reaction mixture contained 96 mM potassium phosphate buffer pH 7.5, 2.5 mM GSSG and 0.8 mM NMNH. NMNH was generated using methods described in Black et al. (Nat. Chem. Biol. 16:87-94 (2020). Briefly, 4 mM NMN^+ was incubated in a solution containing 50 mM Tris-Cl at pH 8.5, 0.2 mM EDTA, 50 mM Na2HPO4, 5 mM D-glyceraldehyde-3-phosphate, and 28 μM of purified E. coli glyceraldehyde-3-phosphate dehydrogenase. The reaction was incubated at 30° C. for 8 h. The protein was removed by an Amicon Ultra 3 K filter, and the flow-through was dried under vacuum. Assays investigating the steady-state kinetic parameters were completed with 100 μL reaction mixtures containing 96 mM Tris-Cl buffer pH 7.5, 2.5 mM GSSG and varied cofactor concentrations from 0.01 mM to 1.6 mM. The assay was started by addition of 10 μL of purified protein at appropriate concentration at 25° C. The kinetic parameters were measured by monitoring the NAD(P)H consumption at 340 nm in 96-well plate. Data was fit to the Michaelis-Menten equation to generate estimates of apparent catalytic efficiency (kcat/Km). The results are the average of three independent experiments.

[4] = Steady state kinetics of glutathione reductase (Gor) variants with NMNH; type: biochemical; conditions: for Km: enzyme could not be saturated, 96 mM Tris-Cl pH 7.5, 2.5 mM GSSG
Description: as §1, §2

E. coli SHuffle strain = experiment: GDH-Gor coupled growth rescue in SHuffle strain; type: cell-based, Escherichia coli; conditions: 0.5 mM diamide, varying NMN^+ concentrations
Description: Culture conditions for GDH-Gor coupled growth rescue in SHuffle strain. The electro-competent cells of SHuffle harboring pLZ311 or pLZ312 were made as follows: The SHuffle cells were cultured in 200 mL SOB media with spectinomycin at 30° C. with shaking until OD600 reached 0.4-0.6. The culture was chilled on ice for 15 min and the cells were pelleted at 4° C., 4,000×g. Collected cells were washed with 10% glycerol in water (sterile, ice cold) and resuspended with 5 mL of 10% glycerol in water (sterile, ice cold), and stored as 50 μL aliquots at −80° C.
Glucose facilitator (encoded by glf) was used for uptake of unphosphorylated glucose into the cells. The co-transformation of Bs gdh and Zm glf was performed as follows: Thaw SHuffle/pLZ311 or SHuffle/pLZ312 electro-competent cells on ice, add 1 μL Bs gdh (pEK101 or pLZ210) and 1 μL Zm glf(pSM109) plasmid DNA to 50 μL competent cells, mix, and electroporate. Cells were recovered with 1 mL SOC at 37° C. with shaking for 1 h. The cells were added to 10 mL 2×YT with 10 g/L glucose, 0.5% arabinose, kanamycin, chloramphenicol, and ampicillin. After incubation at 37° C. with shaking for 10 h, 1 mL cells were washed 3 times and re-suspended in M9 buffer (1×BD Difco M9 Salts). Targeted dilutions after cells reached density of OD600 0.6 were prepared in M9 buffer and 5 μL aliquots were dispensed in series on an agar plate of M9 selection media containing 0.5 mM diamide, 1 g/L yeast extract, 10 g/L glucose, 0.5% arabinose, 0.5 mM IPTG, ampicillin, kanamycin, chloramphenicol and serial NMN concentrations of 0, 2, 4 and 6 mM. Selection plates were incubated at 37° C., and photos were taken to document growth progress.

[5] = previously identified variant; cited from earlier work
[6] = 96 mM Tris-Cl buffer pH 7.5, 2.5 mM GSSG, varied cofactor concentrations, n = 3

B1: Gor I178T (protein, UniProt P06715 1-450, looked up, variant I178T)
Glutathione reductase: MTKHYDYIAIGGGSGGIASINRAAMYGQKCALIEAKELGGTCVNVGCVPKKVMWHAAQIREAIHMYGPDYGFDTTINKFNWETLIASRTAYIDRIHTSYENVLGKNNVDVIKGFARFVDAKTLEVNGETITADHILIATGGRPSHPDIPGVEYGIDSDGFFALPALPERVAVVGAGYTAVELAGVINGLGAKTHLFVRKHAPLRSFDPMISETLVEVMNAEGPQLHTNAIPKAVVKNTDGSLTLELEDGRSETVDCLIWAIGREPANDNINLEAAGVKTNEKGYIVVDKYQNTNIEGIYAVGDNTGAVELTPVAVAAGRRLSERLFNNKPDEHLDYSNIPTVVFSHPPIGTVGLTEPQAREQYGDDQVKVYKSSFTAMYTAVTTHRQPCRMKLVCVGSEEKIVGIHGIGFGMDEMLQGFAVALKMGATKKDFDNTVAIHPTAAEEFVTMR
Question: Which results are given for B1?
Answer: Km [1, 6]: 40 ± 10 µM; NADPH kcat [1, 6]: 31 ± 1 s⁻¹; enhanced NMNH-dependent activity compared to the wild type ([2]; 0.8 mM NMNH, 2.5 mM GSSG, vs wild type Ec Gor): 4 fold; Km [3]: > 1500 µM; Km [4]: > 1500 µM

B2: Gor Ortho: recombinantly engineered E. coli glutathione reductase with I178T, R198M, R204L (SEQ ID NO:8), NMNH-specific (protein)
chain: MTKHYDYIAIGGGSGGIASINRAAMYGQKCALIEAKELGGTCVNVGCVPKKVMWHAAQIREAIHMYGPDYGFDTTINKFNWETLIASRTAYIDRIHTSYENVLGKNNVDVIKGFARFVDAKTLEVNGETITADHILIATGGRPSHPDIPGVEYGIDSDGFFALPALPERVAVVGAGYTAVELAGVINGLGAKTHLFVMKHAPLLSFDPMISETLVEVMNAEGPQLHTNAIPKAVVKNTDGSLTLELEDGRSETVDCLIWAIGREPANDNINLEAAGVKTNEKGYIVVDKYQNTNIEGIYAVGDNTGAVELTPVAVAAGRRLSERLFNNKPDEHLDYSNIPTVVFSHPPIGTVGLTEPQAREQYGDDQVKVYKSSFTAMYTAVTTHRQPCRMKLVCVGSEEKIVGIHGIGFGMDEMLQGFAVALKMGATKKDFDNTVAIHPTAAEEFVTMR
Question: Which “growth of SHuffle strain harboring the Gor variant” value (E. coli SHuffle strain) does the source give for B2 here?
Answer: The value was “supporting growth only with NMN^+ cycling; also recorded: only grows with NMNH regeneration”.

Question: And the “saturation of activity with natural cofactors” value ([1]; concentrations up to 4 mM NAD(P)H)?
Answer: The value was “could not be saturated”.

Question: What about the Km ([1]; enzyme could not be saturated, 96 mM Tris-Cl pH 7.5, 2.5 mM GSSG) of the same molecule?
Answer: Its Km is > 1500 µM.

Question: What about the “reduction of catalytic efficiency for NADPH compared to Ec Gor wild type” value ([1]; vs Ec Gor wild type) of the same molecule?
Answer: The value was ~15,000 fold.

Question: What about the “reduction of catalytic efficiency for NADPH compared to I178T single mutant” value ([1]; vs I178T single mutant) of the same molecule?
Answer: The value was ~9,000 fold.

Question: What about the “change in NMNH-dependent activity on adding R198M-R204L to Ec Gor I178T” value ([2]; vs Ec Gor I178T) of the same molecule?
Answer: The value was “only a modest decrease”.

Question: What about the Km [3] of the same molecule?
Answer: Its Km is > 1500 µM.

Question: And the “decrease of catalytic efficiency for NADH by the additional R198M-R204L mutations” value ([3]; vs I178T)?
Answer: The value was ~2 fold.

Question: And the “cofactor specificity switch from native cofactor NADPH to NMNH” value ([4]; based on catalytic efficiency measured in vitro)?
Answer: The value was 60,000 fold.

Question: And the Km [4]?
Answer: Its Km is > 1500 µM.

Question: And the “catalytic efficiency (kcat/Km) for NMNH, fold higher than the wild type” value ([4]; vs Ec Gor wild type)?
Answer: The value was ~4 fold.

B3: R198M-R204L: previously identified Ec Gor variant with R198M-R204L double mutations (protein, UniProt P06715 1-450, looked up, variant R198M R204L)
Glutathione reductase: MTKHYDYIAIGGGSGGIASINRAAMYGQKCALIEAKELGGTCVNVGCVPKKVMWHAAQIREAIHMYGPDYGFDTTINKFNWETLIASRTAYIDRIHTSYENVLGKNNVDVIKGFARFVDAKTLEVNGETITADHILIATGGRPSHPDIPGVEYGIDSDGFFALPALPERVAVVGAGYIAVELAGVINGLGAKTHLFVMKHAPLLSFDPMISETLVEVMNAEGPQLHTNAIPKAVVKNTDGSLTLELEDGRSETVDCLIWAIGREPANDNINLEAAGVKTNEKGYIVVDKYQNTNIEGIYAVGDNTGAVELTPVAVAAGRRLSERLFNNKPDEHLDYSNIPTVVFSHPPIGTVGLTEPQAREQYGDDQVKVYKSSFTAMYTAVTTHRQPCRMKLVCVGSEEKIVGIHGIGFGMDEMLQGFAVALKMGATKKDFDNTVAIHPTAAEEFVTMR
Question: Which NADPH-dependent activity [5] does the source give for B3 here?
Answer: Its NADPH-dependent activity is “almost completely abolished”.

B4: Gor: wild type glutathione reductase from Escherichia coli (SEQ ID NO:7) (protein, listed as Escherichia coli)
chain: MTKHYDYIAIGGGSGGIASINRAAMYGQKCALIEAKELGGTCVNVGCVPKKVMWHAAQIREAIHMYGPDYGFDTTINKFNWETLIASRTAYIDRIHTSYENVLGKNNVDVIKGFARFVDAKTLEVNGETITADHILIATGGRPSHPDIPGVEYGIDSDGFFALPALPERVAVVGAGYIAVELAGVINGLGAKTHLFVRKHAPLRSFDPMISETLVEVMNAEGPQLHTNAIPKAVVKNTDGSLTLELEDGRSETVDCLIWAIGREPANDNINLEAAGVKTNEKGYIVVDKYQNTNIEGIYAVGDNTGAVELTPVAVAAGRRLSERLFNNKPDEHLDYSNIPTVVFSHPPIGTVGLTEPQAREQYGDDQVKVYKSSFTAMYTAVTTHRQPCRMKLVCVGSEEKIVGIHGIGFGMDEMLQGFAVALKMGATKKDFDNTVAIHPTAAEEFVTMR
Question: What does the source list for B4?
Answer: growth of SHuffle strain harboring the Gor variant (E. coli SHuffle strain; listed as wild type Ec Gor): robust growth independent of NMN^+ supplementation; growth of SHuffle strain harboring the Gor variant (E. coli SHuffle strain; listed as wild type Gor): no growth defects; Km [1, 6]: 60 ± 10 µM; NADPH kcat [1, 6]: 84 ± 7 s⁻¹; Km [3]: > 1500 µM; Km [4]: > 1500 µM

B5: G174H: Ec Gor single-mutation variant predicted to make salt bridge with the NMNH phosphate group (protein, UniProt P06715 1-450, looked up, variant G174H)
Glutathione reductase: MTKHYDYIAIGGGSGGIASINRAAMYGQKCALIEAKELGGTCVNVGCVPKKVMWHAAQIREAIHMYGPDYGFDTTINKFNWETLIASRTAYIDRIHTSYENVLGKNNVDVIKGFARFVDAKTLEVNGETITADHILIATGGRPSHPDIPGVEYGIDSDGFFALPALPERVAVVHAGYIAVELAGVINGLGAKTHLFVRKHAPLRSFDPMISETLVEVMNAEGPQLHTNAIPKAVVKNTDGSLTLELEDGRSETVDCLIWAIGREPANDNINLEAAGVKTNEKGYIVVDKYQNTNIEGIYAVGDNTGAVELTPVAVAAGRRLSERLFNNKPDEHLDYSNIPTVVFSHPPIGTVGLTEPQAREQYGDDQVKVYKSSFTAMYTAVTTHRQPCRMKLVCVGSEEKIVGIHGIGFGMDEMLQGFAVALKMGATKKDFDNTVAIHPTAAEEFVTMR
Question: With B5 as the molecule, how does the “NMNH-dependent activity (in words) compared to the wild type” value ([2]; vs wild type Ec Gor) read?
Answer: The value was “enhanced NMNH-dependent activity”.
